In this test the target is SNAP-tagged human melanocortin-4 receptor (SNAP-MC4R) (human) (UniProt P32245).
UniProt P32245, sequence (P32245 whole entry): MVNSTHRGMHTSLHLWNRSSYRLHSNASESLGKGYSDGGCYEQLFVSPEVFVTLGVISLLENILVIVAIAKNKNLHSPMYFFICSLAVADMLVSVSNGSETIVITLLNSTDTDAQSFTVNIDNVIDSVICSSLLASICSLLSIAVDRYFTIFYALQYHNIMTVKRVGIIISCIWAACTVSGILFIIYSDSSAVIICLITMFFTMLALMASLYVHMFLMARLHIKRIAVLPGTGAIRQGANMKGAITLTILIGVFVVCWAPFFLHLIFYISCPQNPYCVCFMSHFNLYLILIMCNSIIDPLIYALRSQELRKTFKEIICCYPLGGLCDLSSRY

As to α-MSH (peptide), the EC50 of α-MSH-stimulated cAMP production (Epac-S^H187 FRET biosensor, HEK293), MC4R + mock is 4.5 nM and the EC50 of α-MSH-stimulated cAMP production (Epac-S^H187 FRET biosensor, HEK293), MC4R co-expressed with MRAP2 (1 + 1 or 1 + 4) was determined as 1.3 nM.

The values above are taken from PMC12462500.
